For orientation: Km means the concentration of substrate that gives half-maximal velocity. What is called Vmax is the rate approached at saturating substrate.

Among the data in patent US20130196406A1, “NOVEL PROTEIN-POLYMER NANOCAPSULES” (University of Connecticut, priority 2012, published 2013) are Km and Vmax values, retold here.

Several values for one entry are separate records, joined by “and”; a condition that tells them apart may be missing. Equal entries are not always repeated.

This data set has as its system T1, COc1ccccc1O.
T1 construct: peroxidase-like activity with guaiacol/H2O2
The experiment in a line: Peroxidase-like activity, Michaelis-Menten kinetics (guaiacol oxidation by H2O2, 470 nm), unmodified Hb. The note with it: other: Hb, 1 μM Hb, 2.5 mM guaiacol. Format: biochemical, bovine. The procedure: FIG. 5 provides Lineweaver-Burk plots for the peroxidase-like activity of Hb-PAA conjugates. A) Peroxidase-like activity for the 1 μM of Hb-PAA synthesized at pH 6.0. B) Peroxidase-like activity for 1 μM Hb-PAA synthesized at pH 7.0. All experiments were done in the presence of 1 μM Hb, 2.5 mM guaiacol and 1 mM H2O2.
Polyacrylic acid (PAA) (8000 Da) was purchased from sigma chemical Co (St. Louis, Mo.). The PAA stock solution was made by mixing 1.32 gm of 45% (w/w) PAA in 3 ml of 20 mM Na2HPO4 buffer, pH 7.2, and was further used for synthesis. Met-hemoglobin (Hb, bovine) was purchased from Sigma. Protein solutions were prepared in the respective buffers used for synthesis and the concentrations determined from the Soret absorbance of Hb using extinction co-efficient 303,956 M^−1 cm^−1 at 407 nm.
Hb activity was monitored by the addition of guaiacol (substrate) and hydrogen peroxide (oxidant), and formation of the colored product has been monitored by its absorption at 470 nm as a function of time (FIG. 4). […]
Hb activity was followed by literature method, with minor modifications. Product absorbance at 470 nm was monitored as a function time of after the addition of H2O2 (1 mM) to Hb (5 μM) and o-methoxyphenol (2.5 mM). Initial rates and Michaelis-Menten parameters were calculated from the kinetic data by following standard protocols. […]

Sequence of Met-hemoglobin (Hb, bovine), unmodified (Bos taurus) (chain, as listed by the source): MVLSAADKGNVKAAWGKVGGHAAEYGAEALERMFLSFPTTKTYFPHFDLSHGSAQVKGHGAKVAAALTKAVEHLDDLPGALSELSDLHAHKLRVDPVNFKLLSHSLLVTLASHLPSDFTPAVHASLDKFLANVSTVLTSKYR
Sequence of Met-hemoglobin (Hb, bovine), unmodified (Bos taurus) (chain, as listed by the source): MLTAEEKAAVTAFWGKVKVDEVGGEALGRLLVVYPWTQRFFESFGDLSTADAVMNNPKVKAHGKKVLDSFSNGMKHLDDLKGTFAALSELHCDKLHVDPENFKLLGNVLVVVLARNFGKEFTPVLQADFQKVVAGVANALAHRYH

For the substance “Met-hemoglobin (Hb, bovine), unmodified (Bos taurus)”, the Km (1 mM H2O2) was 500 µM and 507 µM. The Vmax (1 mM H2O2, 120.0 °C) was 0.0026 mM/s and 0.0021 mM/s.
